According to patent publication US20070253967A1, “Agent for the treatment and/or prophylaxis of microcirculatory disorders” (priority 1997, published 2007):

Biological target: T1, fibrinogen (Homo sapiens, UniProt P02675+P02679)
T1 construct: then loaded with heparinized plasma (40 ml); from tissue; host or cells: heparinized plasma
Test: Specifity of the coupled Sepharose by SDS gel electrophoresis
Format: binding
Details: statement in the description
Method: The pentapeptide Gly-Pro-Arg-Pro-Lys was synthetized as trifluoracetate and coupled to cyanobromide-active Sepharose CL-4B. The specifity of the coupled Sepharose was tested by means of SDS gel electrophoresis.

T1 sequence (P02671 20-629 partner limits assumed): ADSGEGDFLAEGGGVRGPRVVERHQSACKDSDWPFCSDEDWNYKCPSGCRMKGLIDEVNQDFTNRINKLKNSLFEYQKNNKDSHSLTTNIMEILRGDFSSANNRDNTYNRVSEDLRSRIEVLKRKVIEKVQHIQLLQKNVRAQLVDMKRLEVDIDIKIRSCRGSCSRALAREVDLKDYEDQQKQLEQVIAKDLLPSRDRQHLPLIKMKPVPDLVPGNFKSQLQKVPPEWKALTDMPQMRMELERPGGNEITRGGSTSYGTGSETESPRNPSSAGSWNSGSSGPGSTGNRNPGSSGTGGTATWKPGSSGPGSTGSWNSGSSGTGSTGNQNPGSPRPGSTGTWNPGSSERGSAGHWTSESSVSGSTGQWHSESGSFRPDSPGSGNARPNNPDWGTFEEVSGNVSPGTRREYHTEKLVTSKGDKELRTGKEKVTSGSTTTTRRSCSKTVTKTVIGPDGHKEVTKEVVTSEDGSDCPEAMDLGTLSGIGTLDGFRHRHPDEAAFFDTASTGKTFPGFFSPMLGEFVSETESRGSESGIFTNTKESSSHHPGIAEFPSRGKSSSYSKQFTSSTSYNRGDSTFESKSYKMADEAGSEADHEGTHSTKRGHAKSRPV
T1 sequence (P02675 31-491): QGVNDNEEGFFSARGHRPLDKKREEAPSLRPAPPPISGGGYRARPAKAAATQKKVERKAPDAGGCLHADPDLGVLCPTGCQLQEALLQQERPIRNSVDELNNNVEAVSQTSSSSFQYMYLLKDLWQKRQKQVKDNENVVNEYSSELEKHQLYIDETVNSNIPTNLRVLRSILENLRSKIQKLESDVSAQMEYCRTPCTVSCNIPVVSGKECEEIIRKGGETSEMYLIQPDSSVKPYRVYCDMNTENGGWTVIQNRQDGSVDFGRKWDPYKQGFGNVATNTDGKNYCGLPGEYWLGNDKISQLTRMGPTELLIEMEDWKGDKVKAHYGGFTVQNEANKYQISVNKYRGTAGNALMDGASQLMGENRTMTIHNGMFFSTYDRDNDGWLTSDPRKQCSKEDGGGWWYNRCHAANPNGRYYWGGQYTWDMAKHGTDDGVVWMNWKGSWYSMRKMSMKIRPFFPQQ
T1 sequence (P02679 27-453): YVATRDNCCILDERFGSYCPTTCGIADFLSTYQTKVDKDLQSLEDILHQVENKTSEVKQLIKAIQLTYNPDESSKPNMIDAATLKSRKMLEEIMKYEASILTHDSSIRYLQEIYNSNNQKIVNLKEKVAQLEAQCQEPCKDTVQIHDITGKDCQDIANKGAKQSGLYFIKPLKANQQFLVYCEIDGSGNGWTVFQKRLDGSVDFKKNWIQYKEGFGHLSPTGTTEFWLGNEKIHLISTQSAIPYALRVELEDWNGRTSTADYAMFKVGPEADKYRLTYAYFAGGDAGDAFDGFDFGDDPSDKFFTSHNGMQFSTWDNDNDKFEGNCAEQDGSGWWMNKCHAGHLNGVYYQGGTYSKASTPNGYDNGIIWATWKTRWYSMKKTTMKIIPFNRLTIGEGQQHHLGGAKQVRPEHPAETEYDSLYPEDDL

specifity for fibrinogen and/or fibrin: very high specifity
Substance: Gly-Pro-Arg-Pro-Lys (GPRPK; printed: Gly-Pro-Arg-Pro-Lys) [pentapeptide ligand for fibrinogen and/or fibrin]
